Measured values reported in the supplement of paper PMC10567573.

B1: RIPK4 (parent)
chain: AAWQGHLPIVKLLAKQPGVSVNAQ

Variants of: B1
Assay: protein stability index of a GFP-peptide fusion (GPS, HEK-293T) (PSI 1-6); higher = more stable
Conditions: c terminus: a fixed tail appended
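Further: lentivirally expressed fusions sorted by FACS into six bins by GFP to DsRed ratio, PSI derived from sequencing read proportions per bin multiplied by bin number.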

Variant	protein stability index
AAWFGHLPIVKLLAKQPGVSVNAQ	1.24
AAWVGHLPIVKLLAKQPGVSVNAQ	1.7
AAWWGHLPIVKLLAKQPGVSVNAQ	1.61
AAWTGHLPIVKLLAKQPGVSVNAQ	2.65
AAWMGHLPIVKLLAKQPGVSVNAQ	1.94
AAWDGHLPIVKLLAKQPGVSVNAQ	2.62
AAWGGHLPIVKLLAKQPGVSVNAQ	2.56
AAWLGHLPIVKLLAKQPGVSVNAQ	1.32
AAWYGHLPIVKLLAKQPGVSVNAQ	1.51
AAWQGHLPIVKLLAKQPGVSVNAD	3.29
AAWQGHLPIVKLLAKQPGVSVNAL	2.83
AAWQGHLPIVKLLAKQPGVSVNAY	1.5
AAWQGHLPIVKLLAKQPGVSVNAE	3.17
AAWQGHLPIVKLLAKQPGVSVNAG	1.93
AAWQGHLPIVKLLAKQPGVSVNAA	2.08
AAWQGHLPIVKLLAKQPGVSVNAR	3.16
AAWQGHLPIVKLLAKQPGVSVNAT	1.93
KAWQGHLPIVKLLAKQPGVSVNAQ	2.25
SAWQGHLPIVKLLAKQPGVSVNAQ	2.56
HAWQGHLPIVKLLAKQPGVSVNAQ	2.77
GAWQGHLPIVKLLAKQPGVSVNAQ	1.34
CAWQGHLPIVKLLAKQPGVSVNAQ	2.18
PAWQGHLPIVKLLAKQPGVSVNAQ	2.81
AAWQGHLPIVKLLAKQPGMSVNAQ	2.3

Variant	protein stability index
AAWQGHLPIVKLLAKQPGRSVNAQ	3.3
AAWQGHLPIVKLLAKQPGCSVNAQ	2.66
AAWQGHLPIVKLLAKQPGYSVNAQ	1.75
AAWQGHLPIVKLLAKQPGKSVNAQ	2.73
AAWQGHLPIVKLLAKQPGPSVNAQ	3.08
AAWQGHLPITKLLAKQPGVSVNAQ	2.78
AAWQGHLPIDKLLAKQPGVSVNAQ	2.74
AAWQGHLPIEKLLAKQPGVSVNAQ	3.71
AAWQGHLPIHKLLAKQPGVSVNAQ	2.34
AAWQGHLPIYKLLAKQPGVSVNAQ	3.72
AAWQGHLPIPKLLAKQPGVSVNAQ	2.75
AAWQRHLPIVKLLAKQPGVSVNAQ	2.36
AAWQPHLPIVKLLAKQPGVSVNAQ	2.56
AAWQMHLPIVKLLAKQPGVSVNAQ	2.37
AAWQIHLPIVKLLAKQPGVSVNAQ	1.81
AAWQQHLPIVKLLAKQPGVSVNAQ	2.44
AAWQCHLPIVKLLAKQPGVSVNAQ	2.69
AAWQSHLPIVKLLAKQPGVSVNAQ	2.2
AAWQWHLPIVKLLAKQPGVSVNAQ	1.71
AAWQLHLPIVKLLAKQPGVSVNAQ	1.52
AAWQTHLPIVKLLAKQPGVSVNAQ	2.69
AAWQGHLPIVKFLAKQPGVSVNAQ	2.45
AAWQGHLPIVKSLAKQPGVSVNAQ	3.75
AAWQGHLPIVKQLAKQPGVSVNAQ	3.02

Variant	protein stability index
AAWQGHLPIVKVLAKQPGVSVNAQ	2.35
AAWQGHLPIVKTLAKQPGVSVNAQ	3.25
AAWQGHLPIVKCLAKQPGVSVNAQ	2.75
AAWQGHLPSVKLLAKQPGVSVNAQ	2.83
AAWQGHLPFVKLLAKQPGVSVNAQ	2.36
AAWQGHLPWVKLLAKQPGVSVNAQ	2.63
AAWQGHLPQVKLLAKQPGVSVNAQ	2.78
AAWQGHLPTVKLLAKQPGVSVNAQ	3.02
AAWQGHLPIVKLLAKQFGVSVNAQ	1.53
AAWQGHLPIVKLLAKQQGVSVNAQ	2.37
AAWQGHLPIVKLLAKQDGVSVNAQ	2.15
AAWQGHLPIVKLLAKQWGVSVNAQ	2.91
AAWQGHLPIVKLLAKQLGVSVNAQ	2.58
AAWQGHLPIVKLLAKQKGVSVNAQ	2.45
AAWQGHLPIVKLLAKQTGVSVNAQ	1.83
AAWQGHLPIVKLLAKQMGVSVNAQ	2.5
AAWQGHLPIVKLLAKQPGVSVKAQ	2.29
AAWQGHLPIVKLLAKQPGVSVAAQ	2.15
AAWQGHLPIVKLLAKQPGVSVYAQ	1.39
AAWQGHLPIVKLLAKQPGVSVVAQ	3.92
AAWQGHLPIVKLLAKQPGVSVGAQ	1.98
AAWQGHLPIVKLLAKQPGVSVLAQ	2.06
AAWQGHLPIVKLLAKNPGVSVNAQ	2.95
AAWQGHLPIVKLLAKTPGVSVNAQ	2.5

Variant	protein stability index
AAWQGHLPIVKLLAKEPGVSVNAQ	3.78
AAWQGHLPIVKLLAKCPGVSVNAQ	2
AAWQGHLPIVKLLAKHPGVSVNAQ	2.97
AAWQGHLPIVKLLAKKPGVSVNAQ	2.77
AAWQGHLPIVKLLAKDPGVSVNAQ	3.25
AAWQGHLPIVKLLAKIPGVSVNAQ	1.42
AAWQGHLPIVKLLAKPPGVSVNAQ	2.27
AAWQGHLPIVKLLAKQPLVSVNAQ	2.07
AAWQGHLPIVKLLAKQPFVSVNAQ	1.51
AAWQGHLPIVKLLAKQPYVSVNAQ	2.08
AAWQGHLPIVKLLAKQPMVSVNAQ	1.61
AAWQGHLPIVKLLAKQPTVSVNAQ	2.54
AAWQGHLPIVKLLAKQPRVSVNAQ	1.69
AAWQGHLPIVKLLAKQPVVSVNAQ	1.92
AAWQGHLPIVKLLAKQPKVSVNAQ	2.46
AAWQGHLPIVKLLAKQPIVSVNAQ	2.01
AAWQGHLPIVKLLAKQPWVSVNAQ	1.36
AAWQGHLPIVKLTAKQPGVSVNAQ	2.16
AAWQGHLPIVKLKAKQPGVSVNAQ	2.86
AAWQGHLPIVKLDAKQPGVSVNAQ	3.82
AAWQGHLPIVKLIAKQPGVSVNAQ	2.82
AAWQGHLPIVKLAAKQPGVSVNAQ	2.9
AAWQGHLPIVKLFAKQPGVSVNAQ	2.39
AAWQGHLPIVKLPAKQPGVSVNAQ	3.55

Variant	protein stability index
AAWQGHLPIVKLWAKQPGVSVNAQ	3.24
AAWQGHLPIVKLCAKQPGVSVNAQ	2.86
AAWQGHLPIVKLLAKQPGVSVNLQ	2.01
AAWQGHLPIVKLLAKQPGVSVNEQ	2.92
AAWQGHLPIVKLLAKQPGVSVNDQ	2.65
AAWQGHLPIVKLLAKQPGVSVNNQ	2.92
AAWQGHLPIVKLLAKQPGVSVNTQ	2.4
AAWQGHLPIVKLLAKQPGVSVNCQ	2.89
AAWQGHLPIVKLLAKQPGVSVNPQ	2.03
AAWQGHLPIVKLLAKQPGVSVNRQ	2.64
AAWQGHLPIVKLLAKQPGVSVNSQ	2.52
AAWQGHLPIVKLLAKQPGVSVNHQ	1.79
AAWQGHLPIVKLLAKQPGVSVNKQ	2.6
AAWQGHLPIVSLLAKQPGVSVNAQ	1.58
AAWQGHLPIVGLLAKQPGVSVNAQ	3
AAWQGHLPIVCLLAKQPGVSVNAQ	3.38
AAWQGHLPIVHLLAKQPGVSVNAQ	2.15
AAWQGHLPIVELLAKQPGVSVNAQ	3.62
AAWQGHLPIVPLLAKQPGVSVNAQ	3.07
AAWQGHLPIVRLLAKQPGVSVNAQ	1.72
AAWQGHLPIVILLAKQPGVSVNAQ	1.4
AAWQGHLPIVMLLAKQPGVSVNAQ	2.13
AAWQGHLPIVTLLAKQPGVSVNAQ	2.1
AAWQGHLCIVKLLAKQPGVSVNAQ	3.63

Variant	protein stability index
AAWQGHLNIVKLLAKQPGVSVNAQ	1.78
AAWQGHWPIVKLLAKQPGVSVNAQ	1.81
AAWQGHPPIVKLLAKQPGVSVNAQ	3.21
AAWQGHYPIVKLLAKQPGVSVNAQ	2.05
AAWQGHFPIVKLLAKQPGVSVNAQ	2.71
AAWQGHEPIVKLLAKQPGVSVNAQ	3.31
AAWQGHLPIVKLLAGQPGVSVNAQ	2.58
AAWQGHLPIVKLLAAQPGVSVNAQ	2.56
AAWQGHLPIVKLLAMQPGVSVNAQ	2.11
AAWQGHLPIVKLLAPQPGVSVNAQ	1.28
AAWQGHLPIVKLLAEQPGVSVNAQ	2.73
AAWQGHLPIVKLLAHQPGVSVNAQ	2.43
AAWQGHLPIVKLLARQPGVSVNAQ	2.06
AAWQGHLPIVKLLANQPGVSVNAQ	3.56
AAWQGHLPIVKLLAIQPGVSVNAQ	2.82
AAQQGHLPIVKLLAKQPGVSVNAQ	3.5
AAAQGHLPIVKLLAKQPGVSVNAQ	3.2
AAFQGHLPIVKLLAKQPGVSVNAQ	2.97
AAKQGHLPIVKLLAKQPGVSVNAQ	3.21
AAYQGHLPIVKLLAKQPGVSVNAQ	2.42
AASQGHLPIVKLLAKQPGVSVNAQ	3.65
AAPQGHLPIVKLLAKQPGVSVNAQ	3.82
AANQGHLPIVKLLAKQPGVSVNAQ	3.29
AAMQGHLPIVKLLAKQPGVSVNAQ	3.88

Variant	protein stability index
AACQGHLPIVKLLAKQPGVSVNAQ	3.78
AFWQGHLPIVKLLAKQPGVSVNAQ	2.15
AHWQGHLPIVKLLAKQPGVSVNAQ	2.8
AQWQGHLPIVKLLAKQPGVSVNAQ	2.62
APWQGHLPIVKLLAKQPGVSVNAQ	3.69
AGWQGHLPIVKLLAKQPGVSVNAQ	2.27
ANWQGHLPIVKLLAKQPGVSVNAQ	3.16
ARWQGHLPIVKLLAKQPGVSVNAQ	2.72
ADWQGHLPIVKLLAKQPGVSVNAQ	3.76
AAWQGILPIVKLLAKQPGVSVNAQ	2.65
AAWQGLLPIVKLLAKQPGVSVNAQ	1.45
AAWQGELPIVKLLAKQPGVSVNAQ	2.81
AAWQGTLPIVKLLAKQPGVSVNAQ	2.32
AAWQGHLPIVKLLCKQPGVSVNAQ	1.33
AAWQGHLPIVKLLWKQPGVSVNAQ	1.33
AAWQGHLPIVKLLHKQPGVSVNAQ	2.13
AAWQGHLPIVKLLPKQPGVSVNAQ	3.28
AAWQGHLPIVKLLYKQPGVSVNAQ	2.09
AAWQGHLPIVKLLDKQPGVSVNAQ	3.75
AAWQGHLPIVKLLFKQPGVSVNAQ	1.57
AAWQGHLPIVKLLEKQPGVSVNAQ	2.56
AAWQGHLPIVKLLAKQPGVSQNAQ	2.3
AAWQGHLPIVKLLAKQPGVSGNAQ	1.6
AAWQGHLPIVKLLAKQPGVSHNAQ	2.45

Variant	protein stability index
AAWQGHLPIVKLLAKQPGVSFNAQ	2.23
AAWQGHLPIVKLLAKQPGVSENAQ	2.92
AAWQGHLPIVKLLAKQPGVSKNAQ	2.8
AAWQGHLPIVKLLAKQPGVSMNAQ	1.95
AAWQGHLPIVKLLAKQPGVSNNAQ	2.99
AAWQGHLPIVKLLAKQPGVSCNAQ	1.54
AAWQGHLPIVKLLAKQPGVSPNAQ	2.3
AAWQGHLPIVKLLAKQPGVSDNAQ	3.05
AAWQGHLPIVKLLAKQPGVSINAQ	2.43
AAWQGHLPIVKLLAKQPGVAVNAQ	2.3
AAWQGHLPIVKLLAKQPGVGVNAQ	2.63
AAWQGHLPIVKLLAKQPGVEVNAQ	2.79
AAWQGHLPIVKLLAKQPGVIVNAQ	2.33
AAWQGHLPIVKLLAKQPGVHVNAQ	1.97
AAWQGHLPIVKLLAKQPGVDVNAQ	2.55
AAWQGHLPIVKLLAKQPGVVVNAQ	1.82
AAWQGHLPIVKLLAKQPGVCVNAQ	2.88
AAWQGHLPIVKLLAKQPGVMVNAQ	2.29
AAWQGHLPIVKLLAKQPGVYVNAQ	1.66
AAWQGHLPIVKLLAKQPGVTVNAQ	2.4
